Results reported in patent publication US6555105 (GlaxoSmithKline, dated 2003).

Target: T1, recombinant CC-CKR1 receptor (UniProt P32246 1-355, limits assumed)
T1 construct: whole, on cells; The assay used either THP-1 cells or COS cells expressing recombinant CC-CKR1; also called CCKR1 receptors
T1 sequence (looked up): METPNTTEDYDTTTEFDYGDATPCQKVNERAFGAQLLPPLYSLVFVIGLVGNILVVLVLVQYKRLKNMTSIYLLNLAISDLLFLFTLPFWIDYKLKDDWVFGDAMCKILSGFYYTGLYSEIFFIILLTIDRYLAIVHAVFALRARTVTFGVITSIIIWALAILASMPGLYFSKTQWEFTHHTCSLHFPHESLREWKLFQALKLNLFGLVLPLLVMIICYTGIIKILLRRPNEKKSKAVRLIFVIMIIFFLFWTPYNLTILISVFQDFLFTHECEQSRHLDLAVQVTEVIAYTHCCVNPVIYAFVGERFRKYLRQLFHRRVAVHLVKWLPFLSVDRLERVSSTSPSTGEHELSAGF
Assay: radioligand competition on cells (THP-1 or COS expressing CC-CKR1), [125I]RANTES tracer, competitor Met-RANTES
Protocol: The competition assay was carried out in 96 well multi-screen filter-phase (Millipore, MADV N6500) which had been pretreated for 2 h with 50 mM HEPES buffer, pH 7.2 containing 1 mM CaCl_2, 5 mM MgCl_2, and 0.5% BSA, (binding buffer). The assay was performed using either THP-1 cells or COS cells expressing the recombinant CC-CKR1 receptor (Neote, K., DiGregorio, Mak, J. Y., Horuk, R., and Schall, T. J., (1993) Molecular cloning, functional expression, and signalling characteristics of a C—C chemokine receptor, *Cell* 72 415–425; Gao, J. L., et al, *J. Exp. Med.* 177 1421–7 (1993)). Each well contained 10^5 cells in a volume of 150 μl of binding buffer containing 0.4 nM [I^125]Mip-1a or 0.4 nM [I^125]RANTES (new England Nuclear, Nex 277) and varying concentrations of competing Met-RANTES. Assays were performed in triplicate. After 90 min incubation at 4° C., the cells were washed 4 times with 200 μl ice cold binding buffer containing 0.5 M NaCl which was removed by aspiration. The filters were dried, 3.5 ml Ultima Gold Scintillation fluid added (Packard) and counted on a Beckman LS5000 counter.

binding result: binds
B1: methionylated RANTES (ligand)
chain: MSPYSSDTTPCCFAYIARPLPRAHIKEYFYTSGKCSNPAVVFVTRKNRQVCANPEKKWVREYINSLEMS
notes: also called Met-RANTES
